Assays:
[1] = biological target: human V158 FcγRIIIa, extracellular region with C-terminal 6xHis-tag and GST-tag (human, UniProt P08637 17-208); assay: AlphaScreen competition
FcγRI = biological target: T1, FcγRI (human, UniProt P12314 16-288); assay: Biacore
T1 chain: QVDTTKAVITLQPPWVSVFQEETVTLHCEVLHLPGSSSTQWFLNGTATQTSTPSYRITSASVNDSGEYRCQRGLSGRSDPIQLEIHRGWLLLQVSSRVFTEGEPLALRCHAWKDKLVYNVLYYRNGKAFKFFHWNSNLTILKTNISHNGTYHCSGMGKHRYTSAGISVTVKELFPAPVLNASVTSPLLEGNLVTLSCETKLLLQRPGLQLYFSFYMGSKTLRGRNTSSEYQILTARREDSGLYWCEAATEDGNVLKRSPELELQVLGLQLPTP

FcγRIIb = biological target: T2, FcγRIIb (human, UniProt P31994 46-217); assay: Biacore
T2 chain: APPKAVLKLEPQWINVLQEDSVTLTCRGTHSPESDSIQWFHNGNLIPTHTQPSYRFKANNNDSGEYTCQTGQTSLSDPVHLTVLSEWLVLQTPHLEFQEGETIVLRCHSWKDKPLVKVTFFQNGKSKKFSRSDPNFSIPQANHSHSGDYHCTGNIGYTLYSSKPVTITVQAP

H268N = assay: Biacore
H268D = assay: Biacore
A327D = assay: Biacore
H268E = assay: Biacore
A327Q = assay: Biacore
S267E/N325L = assay: Biacore
A327G = assay: Biacore
L328F = assay: Biacore
H268Q = assay: Biacore
A327N = assay: Biacore
S267E/L328Y = assay: Biacore
P329E = assay: Biacore
S298D = assay: Biacore

B1: alemtuzumab S239D (antibody)
chain 1: not shown
chain 2: not shown
With B1 the IC50 [1] was 0.4 nM.

B2: alemtuzumab, wild type, expressed in 293T cells (antibody)
chain 1: not shown
chain 2: not shown
In the case of B2, the IC50 [1] is reported as 4.6 nM.

B3: S267G (antibody)
chain 1: not shown
chain 2: DIVMTQSPATLSLSPGERATLSCRSSKSLQNVNGNTYLYWFQQKPGQSPQLLIYRMSNLNSGVPDRFSGSGSGTEFTLTISSLEPEDFAVYYCMQHLEYPITFGAGTKLEIKRTVAAPSVFIFPPSDEQLKSGTASVVCLLNNFYPREAKVQWKVDNALQSGNSQESVTEQDSKDSTYSLSSTLTLSKADYEKHKVYACEVTHQGLSSPVTKSFNRGEC
Work on B3 yielded a Kd (FcγRI) of 0.626 nM and a Kd (FcγRIIb) of 1450 nM.

B4: FcγRIIaR (receptor)
chain: QAAAPPKAVLKLEPPWINVLQEDSVTLTCQGARSPESDSIQWFHNGNLIPTHTQPSYRFKANNNDSGEYTCQTGQTSLSDPVHLTVLSEWLVLQTPHLEFQEGETIMLRCHSWKDKPLVKVTFFQNGKSQKFSRLDPTFSIPQANHSHSGDYHCTGNIGYTLFSSKPVTITVQVPSMGSSSPMG
Binder B4 has a Kd (H268N) of 481 nM, a Kd (H268D) of 205 nM and a Kd (A327D) of 536 nM. For the same binder, the Kd (H268E) was 269 nM, the Kd (A327Q) was 1350 nM and the Kd (S267E/N325L) was 20.7 nM. It also gave a Kd (A327G) of 2690 nM, a Kd (L328F) of 166 nM and a Kd (H268Q) of 544 nM. It also gave a Kd (A327N) of 1410 nM, a Kd (S267E/L328Y) of 7.06 nM and a Kd (P329E) of 10 µM. It also gave a Kd (S298D) of 592 nM.
